Measured values taken from the supplement of paper PMC9170038.

Tested on: MS2 coat protein
Assay: apparent KD of MS2 coat protein; higher = weaker reporter binding
Settings: Eterna round: R107
Description: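 RNA-MaP round R107: designed RNA switches with theophylline, tryptophan, arginine or FMN aptamers are transcribed on-chip within common flanks. They are titrated with SNAP-549-labelled MS2 coat protein in RNA-MaP buffer (100 mM Tris pH 7.5, 80 mM KCl, 4 mM MgCl2), without ligand or with the indicated ligand. Median apparent KD per design.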

[1] = input ligand: theophylline 20 uM
[2] = input ligand: theophylline 2 mM
[3] = input ligand: tryptophan 2.4 mM

Row | Sequence | apparent KD of MS2 coat protein (input ligand: arginine 13.2 mM) | apparent KD of MS2 coat protein (input ligand: none) | apparent KD of MS2 coat protein [1] | apparent KD of MS2 coat protein [2] | apparent KD of MS2 coat protein [3]
1 | ACAAGAGGGAUGGAUACCAGCGACAUGAGGAUCACCCAUGUAUGAGGAUCAGCCAUGUUAUGCCCUUGGCAGCCACGAAGAUCAG [XXXMULLIN] | 27.1 nM | 25.1 nM | 32.8 nM | 104 nM | 21.6 nM
2 | AGCUCGCGAAAGCGAGCAACAUGAUCCGAAGGAGCGCGCGAAAGCGCAGGUAGGUCGCGGACAUGAGGAUCACCCAUGUCUCCUU [MAT - Exclusion Arginine A - Mod of Eli - D14] | 41 nM | 66.2 nM | 57.3 nM | 63.2 nM | 62.2 nM
3 | GAGCUGAUGUAGGCCGGAUAUCCGGGAGAUACCAGUACAGAAAUGUACCCUUGGCAGCUCUUUCUUACAUGAGGAUCACCCAUGU [Ex Theophylline A 27] | 11.5 nM | 13.1 nM | 15.4 nM | 19.1 nM | 13.4 nM
4 | AGCGACAUGCGUGAUACCAGCUACAUGAGGAUCACCCAUGUAAGUAGGAAACUACUGUGUAGCCCUUGGCAGCACAAUGCAUGUC [Exclusion - Theophylline B (Freestyle 24)] | 20.3 nM |  | 37.2 nM |  | 20 nM
5 | ACGAACGAUAGUGAUACCAGACGUACAUGAGGAUCACCCAUGUUAUACACAUGGUUUAUUGUCCCUUGGCAGCACGUUAAGUUCG [JR_ExcTheophyB_Sub005] | 98.5 nM |  | 274 nM |  | 289 nM
6 | UAUUAUCAGUCGGCCGCCACUGACACAUGAGGAUCACCCAUGUAAUUUGGGUUAUAUAGAAAAUACAGGACCGGGACUAAGGCUA [JR_ExcTryptoB_Sub014] | 87.5 nM |  | 324 nM | 326 nM | 
7 | UAUCCACAUGAGGAUCACCCAUGUAGGGAAGGAGCGGUGGAUGCACCAGGUAGGUCGCCUUGCUGAGGACAGCCGGUGGAUUCGU [Exclusion - Arginine A (Freestyle 27)] | 29 nM | 31.9 nM | 59.6 nM | 46.7 nM | 32.8 nM
8 | AGUGUUAUAACUGAUACCAGACCUUUGCUUAUACAUGAGGAUCACCCAUGUAAAAUGGCUGUCCCUUGGCAGCAGAGAAUACACA [#07 Same State - Theophylline B] | 42.9 nM |  | 45.2 nM |  | 47.1 nM
9 | UGUAAUGGGAUCAACCCAUGAGAGUCUGAAGGAGCGAUCGUAAGAUCAGGUAGGUCGCGGGAGACAUGAGGAUCACCCAUGUAUA [#23 Exclusion - Arginine A] | 27.2 nM | 41 nM | 46.3 nM | 44.3 nM | 39.7 nM
10 | AAAUAUAACUCGGCCGCCACUGACAUGAGGAUCACCCAUGUUAUAUUUUAUACAUGAGGAUCACCCAGGACCGGGAGAAUAUAAA [Jonah 1] | 61.7 nM | 940 nM | 484 nM | 696 nM | 1590 nM
11 | AGAAUAACACAUGAGGAUCACCCAUGUGAUACCAGCUAGGAAACUAGCCCUUGGCAGCACAUAAUCCUCAUGAGCUGCCAUAAUA [(M1)-(M2)-(T1)-(T2)-(M)'-(T)'_Design2_2/19/17] | 12 nM |  | 19.2 nM |  | 12.3 nM
12 | AGAGUUAGACAAAAGUCUAGCUCACCAGAAGGAGCGUCCGAAAGGACAGGUAGGUCGCUGGUGCAUGAGGAUCACCCAUGCUCCU [ArgAS 19 #OpenEnded #AlternativeMS2] | 66.6 nM | 204 nM | 171 nM | 243 nM | 211 nM
13 | UGUAUGGACUGAAGGAGCGCCUCAAAAUAACAUGAGGAUCACCCAUGUGGCGAAAGCCAAGGGCAGGUAGGUCGCAGUCCAUACU [ArgBX 4 #StaticStem #MS2Late] | 27.3 nM | 26.4 nM | 34.2 nM | 32.9 nM | 32 nM
14 | ACAUGAGGAUCACCCAUGUGUGUAAGUCCUCGAGGACCGGUACGGCCGCCACUCGAACGAGUGUAACAUACUUGUUACAAGUAUG [SS Trp A s3] | 18.5 nM |  | 39.9 nM | 43.3 nM | 
15 | UAUCCACAUGAGGAUCACCCAUGUUAGGAAGGAGCGGUGAAUGAACCAGGUAGGUCGCCUAGGUGAGGAUCAUCUAUGGAUUCGU [Exclusion - Arginine A (Freestyle 11)] | 30 nM | 30.2 nM | 37.3 nM | 38.3 nM | 31.7 nM
16 | UGUAUGUGAUCUGAUACCAGUCCAACUGGUAAAGCACGAGGAUCACCCGUGUAAAAUUGGGACCCUUGGCAGCAGAUCGCAUACU | 96.8 nM | 228 nM | 352 nM | 57.8 nM | 115 nM
17 | CAAGACAUGAGGAUCACCCAUGUGGUGUACCGAGGACCGGUACGGCCGCCACUCGUUCAUCGGUCGACAAGCUACCCUUCAAGGU [theeternabot_sameState_MS2_Trp_A_7] | 25.5 nM |  | 40.4 nM | 27.7 nM | 
18 | AGAGUCUAGUCGGCCGCCACUCAUGUCCAAAGGACAUGAGGAUCACCCAUGUACCAAUGGUACAUGAGGACCGGGACUGGACUCA [Omei Tryp B SS C v2] | 227 nM |  | 343 nM | 120 nM | 
